The target of experiment [1] is T1, ROR1-Fc peptide (R&D System) (UniProt Q01973 30-403).
T1 construct: Bought detection reagent (R&D Systems), detected with anti Fc-AF647; not shown: Fc part of the bought reagent, not described
The experiment is described as follows: flow cytometry; transduced primary human T cells stained with ROR1-Fc, then anti-Fc Alexa Flour 647. The text has this:
Half million CAR T cells were washed in cold AutoMACS buffer supplemented with 0.5% bovine serum albumin (Miltenyi Biotec, Bergisch Gladbach, Germany) and stained with CAR detection reagents. For ROR CAR, cells were stained with ROR1-Fc peptide (R&D System, Minneapolis, MN), followed by anti Fc-AF647 conjugate(Jackson ImmunoResearch, West Grove, PA). For MSLN CAR, cells were stained with MSLN-His (R&D System, Minneapolis, MN) […] anti-His-APC (Miltenyi Biotec). The 7-Aminoactinomycin D staining (7-AAD, BD Biosciences, San Jose, CA) was added to exclude dead cells. CD4 antibody labeled with VioBlue fluorochrome or CD8 antibody labeled with VioGreen fluorochrome was used to separate CD4 and CD8 population. Non-transduced cells (UTD) were used as a negative control. Cells were washed twice, resuspended in 200 μl running buffer, and acquired by flow cytometry. Flow cytometric analysis was performed on a MACSQuant® 10 Analyzer (Miltenyi Biotec), and data plots were generated using FlowJo software (Ashland, OR).
ROR1 and MSLN mono CARs and tandem CARs without mIL7 were included as control (FIG. 2A). CAR sequences were further incorporated into a third-generation lentiviral vectors and transduced into human primary T cells at MOI 40, to generate the ROR1 and/or MSLN CAR T cells under the control of the mammalian EF-1α promoter. Un-transduced T cells derived from same donor (UTD) were used as negative control. Surface expression of CARs with ROR1 binder on transduced T cells was measured by flow cytometry using ROR1-Fc, followed by staining with anti-Fc Alexa Flour 647. CARs with MSLN scFv surface expression was detected by MSLN-His followed by anti-His APC. […] Quantified CAR positive percentage and mean fluorescence intensity (MFI) of ROR1 binders (FIG. 2B, 2D) and MSLN binders (FIG. 2C, 2E) were plotted as bar figure.

Experiment [2] addresses T2, FolR1-Fc peptide (Acro Biosystems) (UniProt P15328 25-233).
T2 construct: Bought detection reagent, detected with anti Fc-AF647; not shown: Fc part of the bought reagent, not described
The experiment is described as follows: flow cytometry; transduced primary human T cells stained with FolR1-Fc, then anti-Fc Alexa Flour 647. From the text: 0.32E6 CAR-T cells were washed in cold AutoMACS buffer supplemented with 0.5% bovine serum albumin (Miltenyi Biotec, Bergisch Gladbach, Germany) and stained with CAR detection reagents. For ROR CAR, cells were stained with ROR1-Fc peptide (R&D Systems, Minneapolis, MN) and FolR1 CAR were stained with FolR1-Fc peptide (Acro Biosystems, Newark, DE) followed by anti Fc-AF647 conjugate (Jackson ImmunoResearch, West Grove, PA). The 7-Aminoactinomycin D staining (7-AAD, BD Biosciences, San Jose, CA) was added to exclude dead cells. CD4 antibody labeled with VioBlue fluorochrome was used to separate CD4 and CD8 population. Processed mouse bone marrow and spleen were stained with human CD3 VioBlue and human CD45 FITC (Miltenyi Biotec) to determine the presence of CAR-T. To assess for memory phenotype, cells were stained with CD62L PE and CD45RA APC-Vio700 (Miltenyi Biotec). Non-transduced cells (UTD) were used as a negative control. Cells were washed twice, resuspended in 200 μl running buffer, and acquired by flow cytometry. […]
To test CAR-T functionality in vitro, ROR1 or FolR1 mono CARs with MMP-2, MMP-9, HPSE or PH-20 as booster elements were characterized. […] Surface expression of CARs with ROR1 or FolR1 binder on transduced T cells was measured by flow cytometry using ROR1-Fc or FolR1-Fc respectively, followed by staining with anti-Fc Alexa Flour 647.

The target in experiment [3] is T3, ROR1.Fc (Sino Biologicals) (UniProt Q01973 30-403).
T3 construct: not shown: Fc part of the bought reagent, not described
T3 sequence (Q01973 30-403): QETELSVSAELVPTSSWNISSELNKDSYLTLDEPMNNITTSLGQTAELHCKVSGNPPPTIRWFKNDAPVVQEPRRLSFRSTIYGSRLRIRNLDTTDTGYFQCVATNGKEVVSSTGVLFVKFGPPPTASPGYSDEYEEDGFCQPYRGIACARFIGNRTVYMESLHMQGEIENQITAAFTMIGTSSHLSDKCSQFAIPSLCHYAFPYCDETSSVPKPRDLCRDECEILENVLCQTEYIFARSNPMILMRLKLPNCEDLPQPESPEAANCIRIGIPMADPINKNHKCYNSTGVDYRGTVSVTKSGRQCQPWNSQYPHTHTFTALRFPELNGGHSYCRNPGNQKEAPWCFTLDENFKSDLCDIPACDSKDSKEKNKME
The experiment is described as follows: flow cytometry of transduced primary human T cells at day 8; ROR1.Fc and anti-human Fc.AF647 are the listed reagents. The method, then:
Flow cytometric analysis was performed as previously described (12, 15, 16). All cell staining reagents for flow cytometry were from Miltenyi Biotec, unless otherwise noted. These include anti-ROR1.AF647, mouse IgG1 control. APC, anti-CD45.PE, anti-CD8. Viogreen, anti-CD3.VioBlue, anti-CD45. VioBright FITC, anti-CD45RA. APC-Vio770, anti-CD62L.PE, anti-PD1.PE-Vio770, Streptavidin. PE (Miltenyi Biotec). Cell viability solution (7-AAD), BD Pharm Lysing buffer were purchased from BD Biosciences. Anti-ROR1.AF647 was from R&D systems. ROR1.Fc was from Sino Biologicals. Anti-human Fc.AF647 was from Jackson ImmunoResearch. Countbright absolute counting beads were from ThermoFisher Scientific. Anti-TGFβRII. Biotin was from Biolegend. Stained cells were analyzed using the MACSQuant Analyzer 10 flow cytometer (Miltenyi Biotec).
(In general: A flow cytometer gives signals particle by particle.)

For experiment [4], the target named is T4, CD276-His (Acro biosystems) (UniProt Q5ZPR3-2 29-245, limits assumed).
T4 construct: Bought detection reagent, detected with anti-His PE
T4 sequence (looked up): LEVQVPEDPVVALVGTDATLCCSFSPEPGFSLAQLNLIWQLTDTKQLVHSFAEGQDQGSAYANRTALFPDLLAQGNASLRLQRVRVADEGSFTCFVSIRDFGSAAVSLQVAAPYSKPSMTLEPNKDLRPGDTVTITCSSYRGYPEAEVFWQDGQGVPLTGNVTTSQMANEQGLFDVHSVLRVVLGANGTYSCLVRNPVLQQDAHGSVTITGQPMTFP
The experiment is described as follows: flow cytometry; transduced primary human T cells co-stained with ROR1-Fc and CD276-His, then anti-Fc and anti-His conjugates. From the text: Half million CAR T cells were washed in cold AutoMACS buffer supplemented with 0.5% bovine serum albumin (Miltenyi Biotec, Bergisch Gladbach, Germany) and stained with CAR detection reagents. For ROR1 CAR, cells were stained with ROR1-Fc peptide (R&D System, Minneapolis, MN), followed by anti Fc-AF647 conjugate(Jackson ImmunoResearch, West Grove, PA). For CD276 CAR or CCR, cells were stained with CD276-His (Acro biosystems, Newark, De), followed by anti-His PE (Miltenyi Biotech). The 7-Aminoactinomycin D staining (7-AAD, BD Biosciences, San Jose, CA) was added to exclude dead cells. CD4 antibody labeled with VioBlue was used to separate CD4 and CD8 population. Non-transduced cells (UTD) were used as a negative control. Cells were washed twice, resuspended in 200 μl running buffer, and acquired by flow cytometry. […]
CD276 specific targeting-scFvs were first evaluated in CAR context in vitro, ROR1 CAR was included as control. […] Surface expression of CD276 CARs with ROR1 binder on transduced T cells was measured by flow cytometry using CD276-His, followed by staining with anti-His PE. ROR1 CAR expression was determined as previously described. […] The target specific cytotoxicity of CD276 and/or ROR1 CARs was measured by luciferase based overnight killing assy. […]

T1 sequence (Q01973 30-403): as the sequence (Q01973 30-403) above
T2 sequence (P15328 25-233): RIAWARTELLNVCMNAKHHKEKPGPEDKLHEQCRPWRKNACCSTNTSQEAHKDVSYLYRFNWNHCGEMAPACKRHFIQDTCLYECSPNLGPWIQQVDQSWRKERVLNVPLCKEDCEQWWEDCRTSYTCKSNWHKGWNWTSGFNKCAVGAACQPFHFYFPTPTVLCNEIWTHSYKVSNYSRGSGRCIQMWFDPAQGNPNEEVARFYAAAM

B1: CAR D0233 MSLN M1-4S ROR1 scFv9 IgG4 CD8 BBz (other)
chain: EVQLVQSGGGLVQPGGSLRLSCAASGFTFDDYAMHWVRQAPGKGLEWVSGISWNSGSIGYADSVKGRFTISRDNAKNSLYLQMNSLRAEDTALYYCAKDLSSVAGPFNYWGQGTLVTVSSGGGGSGGGGSGGGGSSSELTQDPAVSVALGQTVRITCQGDSLRSYYASWYQQKPGQAPVLVIYGKNNRPSGIPDRFSGSSSGNTASLTITGAQAEDEADYYCNSRDSSGNHLVFGGGTQLTVLGGGGGSGGGGSGGGGSGGGGSGGGGSQAAQVQLQQSGAEVKKPGSSVKVSCKASGGTFSSYAISWVRQAPGQGLEWMGWINPNSGGTNYAQRFQGRVTMTRDTSISTAYMELSRLRSDDTAVYYCASYNDAFDIWGQGTLVTVSSGGGGSGGGGSGGGGSNFMLTQPHSVSESPGKTVTISCTRSSGSIASNYVQWYQQRPGSAPTIVIYEDDQRPSGVPDRFSGSIDTSSNSASLTISGLQSEDEADYYCQSYEPGNGVFGGGTKVTVLAAAESKYGPPCPPCPIYIWAPLAGTCGVLLLSLVITLYCKRGRKKLLYIFKQPFMRPVQTTQEEDGCSCRFPEEEEGGCELRVKFSRSADAPAYQQGQNQLYNELNLGRREEYDVLDKRRGRDPEMGGKPRRKNPQEGLYNELQKDKMAEAYSEIGMKGERRRGKGHDGLYQGLSTATKDTYDALHMQALPPR
notes: Tandem CAR on transduced primary human T cells; also called MSLN-ROR1 scFv9-IgG4 hinge-CD8TM-41BB-CD3ζ; tandem CAR D0233
B1: the binding result in experiment [1] was “binds”.

B2: CAR D0351 Farle CD8 BBz (other)
chain: MEVQLVESGGGVVQPGRSLRLSCSASGFTFSGYGLSWVRQAPGKGLEWVAMISSGGSYTYYADSVKGRFAISRDNAKNTLFLQMDSLRPEDTGVYFCARHGDDPAWFAYWGQGTPVTVSSASTKGGGGGSGGGGSGGGGSDIQLTQSPSSLSASVGDRVTITCSVSSSISSNNLHWYQQKPGKAPKPWIYGTSNLASGVPSRFSGSGSGTDYTFTISSLQPEDIATYYCQQWSSYPYMYTFGQGTKVEIKRTAAATTTPAPRPPTPAPTIASQPLSLRPEACRPAAGGAVHTRGLDFACDIYIWAPLAGTCGVLLLSLVITLYCKRGRKKLLYIFKQPFMRPVQTTQEEDGCSCRFPEEEEGGCELRVKFSRSADAPAYQQGQNQLYNELNLGRREEYDVLDKRRGRDPEMGGKPRRKNPQEGLYNELQKDKMAEAYSEIGMKGERRRGKGHDGLYQGLSTATKDTYDALHMQALPPR
notes: FolR1 CAR (Farletuzumab scFv) on transduced primary human T cells, PGK promoter; also called Farle-CD8H&TM-41BB-CD3ζ; mono-FolR1 D0351
On to B2, for which the binding result in experiment [2] is “binds”.

B3: CAR LTG2529 ROR1scFv9 IgG4 CD8 BBz (other)
chain: QAAQVQLQQSGAEVKKPGSSVKVSCKASGGTFSSYAISWVRQAPGQGLEWMGWINPNSGGTNYAQRFQGRVTMTRDTSISTAYMELSRLRSDDTAVYYCASYNDAFDIWGQGTLVTVSSGGGGSGGGGSGGGGSNFMLTQPHSVSESPGKTVTISCTRSSGSIASNYVQWYQQRPGSAPTIVIYEDDQRPSGVPDRFSGSIDTSSNSASLTISGLQSEDEADYYCQSYEPGNGVFGGGTKVTVLAAAESKYGPPCPPCPIYIWAPLAGTCGVLLLSLVITLYCKRGRKKLLYIFKQPFMRPVQTTQEEDGCSCRFPEEEEGGCELRVKFSRSADAPAYQQGQNQLYNELNLGRREEYDVLDKRRGRDPEMGGKPRRKNPQEGLYNELQKDKMAEAYSEIGMKGERRRGKGHDGLYQGLSTATKDTYDALHMQALPPR
notes: Chimeric antigen receptor on lentivirally transduced primary human T cells; The entry includes the N-terminal leader peptide; also called ROR1 CAR LTG2529; ROR1-LTG2529
For the molecule B3, the binding result is given as “binds” in experiment [3], “binds” in experiment [1] and “no binding” in experiment [4].

B4: D0290 ROR1 scFv9-IgG4 hinge-CD8TM-41BB-CD3ζ (other)
chain: QAAQVQLQQSGAEVKKPGSSVKVSCKASGGTFSSYAISWVRQAPGQGLEWMGWINPNSGGTNYAQRFQGRVTMTRDTSISTAYMELSRLRSDDTAVYYCASYNDAFDIWGQGTLVTVSSGGGGSGGGGSGGGGSNFMLTQPHSVSESPGKTVTISCTRSSGSIASNYVQWYQQRPGSAPTIVIYEDDQRPSGVPDRFSGSIDTSSNSASLTISGLQSEDEADYYCQSYEPGNGVFGGGTKVTVL
notes: CAR on transduced primary human T cells; also called CAR D0290; mono ROR1 CAR; not shown: IgG4 hinge, CD8 TM, 4-1BB, CD3ζ
On to B4, for which the binding result in experiment [1] is “binds”.

B5: CAR LTG2527 ROR1 IgG4 CD8 BBz (other)
chain: QEQLVESGGRLVTPGGSLTLSCKASGFDFSAYYMSWVRQAPGKGLEWIATIYPSSGKTYYATWVNGRFTISSDNAQNTVDLQMNSLTAADRATYFCARDSYADDGALFNIWGPGTLVTISSGGGGSGGGGSGGGGSELVLTQSPSVSAALGSPAKITCTLSSAHKTDTIDWYQQLQGEAPRYLMQVQSDGSYTKRPGVPDRFSGSSSGADRYLIIPSVQADDEADYYCGADYIGGYVFGGGTQLTVTGAAAESKYGPPCPPCPIYIWAPLAGTCGVLLLSLVITLYCKRGRKKLLYIFKQPFMRPVQTTQEEDGCSCRFPEEEEGGCELRVKFSRSADAPAYQQGQNQLYNELNLGRREEYDVLDKRRGRDPEMGGKPRRKNPQEGLYNELQKDKMAEAYSEIGMKGERRRGKGHDGLYQGLSTATKDTYDALHMQALPPR
notes: CAR on transduced primary human T cells; also called ROR1 R12 -IgG4 hinge-CD8TM-41BB-CD3ζ; R12-ROR1 LTG2527
Regarding B5, the binding result in experiment [3] is given as “binds”.
